Article PMC2783173

Columns and labels:
Test in all cases: split reporter
[1] = target: HIV-1 Nef (SF2) 2PA (SH3-binding motif mutant), YFP BiFC fusions (HIV-1 (SF2 allele)) (UniProt P03407)
[2] = target: HIV-1 Nef (SF2) D123A, YFP BiFC fusions (HIV-1 (SF2 allele))
[3] = target: HIV-1 Nef (SF2) D123N, YFP BiFC fusions (HIV-1 (SF2 allele))
[4] = target: HIV-1 Nef (SF2) D123V, YFP BiFC fusions (HIV-1 (SF2 allele))
[5] = target: HIV-1 Nef (SF2) F121A, YFP BiFC fusions (HIV-1 (SF2 allele))
[6] = target: HIV-1 Nef (SF2) I109D/L112D/Y115D/F121D, YFP BiFC fusions (HIV-1 (SF2 allele))
[7] = target: HIV-1 Nef (SF2) L112A, YFP BiFC fusions (HIV-1 (SF2 allele))
[8] = target: HIV-1 Nef (SF2) L112D, YFP BiFC fusions (HIV-1 (SF2 allele))
[9] = target: HIV-1 Nef (SF2) L112D/Y115D, YFP BiFC fusions (HIV-1 (SF2 allele))
[10] = target: HIV-1 Nef (SF2) R105E, YFP BiFC fusions (HIV-1 (SF2 allele))
[11] = target: HIV-1 Nef (SF2) R105E/R106E, YFP BiFC fusions (HIV-1 (SF2 allele))
[12] = target: HIV-1 Nef (SF2) Y115D, YFP BiFC fusions (HIV-1 (SF2 allele))

With “HIV-1 Nef (SF2) 2PA (SH3-binding motif mutant), YFP BiFC fusions (from UniProt P03407) (natural protein)” the % decrease in BiFC relative to WT [1] was 0%.

“HIV-1 Nef (SF2) D123A, YFP BiFC fusions (natural protein)” was tested, and the % decrease in BiFC relative to WT [2] was 69.6%.

“HIV-1 Nef (SF2) D123N, YFP BiFC fusions (natural protein)” was tested, and the % decrease in BiFC relative to WT [3] was 97.1%.

For “HIV-1 Nef (SF2) D123V, YFP BiFC fusions (natural protein)”, the % decrease in BiFC relative to WT [4] was 52.9%.

For “HIV-1 Nef (SF2) F121A, YFP BiFC fusions (natural protein)”, the % decrease in BiFC relative to WT [5] was 33%.

“HIV-1 Nef (SF2) I109D/L112D/Y115D/F121D, YFP BiFC fusions (natural protein)” showed a % decrease in BiFC relative to WT [6] of 99.9%.

For “HIV-1 Nef (SF2) L112A, YFP BiFC fusions (natural protein)”, the % decrease in BiFC relative to WT [7] was 52.8%.

“HIV-1 Nef (SF2) L112D, YFP BiFC fusions (natural protein)” was tested, and the % decrease in BiFC relative to WT [8] was 47.5%.

Substance “HIV-1 Nef (SF2) L112D/Y115D, YFP BiFC fusions (natural protein)” has a % decrease in BiFC relative to WT [9] of 86.7%.

In the case of “HIV-1 Nef (SF2) R105E, YFP BiFC fusions (natural protein)”, the % decrease in BiFC relative to WT [10] is reported as 49.9%.

For “HIV-1 Nef (SF2) R105E/R106E, YFP BiFC fusions (natural protein)”, the % decrease in BiFC relative to WT [11] was 71.1%.

“HIV-1 Nef (SF2) Y115D, YFP BiFC fusions (natural protein)” was tested, and the % decrease in BiFC relative to WT [12] was 59.1%.
